Assay results as given in the supplement of paper PMC10266784.

B1: library; numbered along this chain (parent)
chain: MAAAAAAAAEQQSSNGPVKKSMREKAVERRSVNKEHNSNFKAGYIPIDEDRLHKTGLRGRKGNLAICVIILLFILAVINLIITLVIWAVIRIGPNGCDSMEFHESGLLRFKQVSDMGVIHPLYKSTVGGRRNENLVITGNNQPIVFQQGTTKLSVENNKTSITSDIGMQFFDPRTQNILFSTDYETHEFHLPSGVKSLNVQKASTERITSNATSDLNIKVDGRAIVRGNEGVFIMGKTIEFHMGGNMELKAENSIILNGSVMVSTTRLPSSSSGDQLGSGDWVRYKLCMCADGTLFKVQVTSQNMGCQISDNPCGNTH

Variants of: B1
Experiment: SGCB cell-surface expression functional score (HA stain, bin4 vs bin1, normalised to synonymous) (log10 ratio); higher = more cell-surface SGCB (functional)
Experimental: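 Deep mutational scan of full-length human SGCB (YFP-SGCB-HA, NNN codon sublibraries A-F) delivered by lentivirus at low MOI into ADG-HEK293 cells stably expressing SGCA, SGCD and SGCG. YFP-positive cells were stained for surface HA on unpermeabilized cells and FACS-sorted into bins. The functional score is log10(frequency in high bin 4 / frequency in low bin 1), normalised per chunk so that synonymous variants have mean 0 and SD 0.5. Scores are the median over codons and over duplicate biological replicates; scores below -0.5 are called non-functional. Scale: negative means deleterious.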

SGCB cell-surface expression functional score (log10): each site, then its substitutions
D50: P -0.16
F40: A 0.18; S 0.16; V 0.27; P -0.13; G -0.49; K 0.55; H -0.44; D 0.12; L -0.13; I 0.24; M -0.28; N -0.16; E 0.01; Y 0.49; Q 0.03; C 0.25; R -0.05; W -0.21; T 0.19
I47: F -0.49; Q 0.68; N 0.73; D 0.59; G 0.36; T 0.58; K 0.52; Y 0.65; P 0.47; R -0.19; L -0.14; E 0.72; V 0.12; M 0.47; H 0.63; C 0.31; A 0.17; W -0.62; S 0.29
P46: Q 0.28; C 0.44; D -0.14; R -0.18; K -0.07; F 0.22; S 0.15; W -0.33; Y 0.03; M 0; L -0.2; E 0.1; N 0.18; G 0.65; T 0.21; A -0.03; I 0.27; V -0.23; H 0.31
L52: K -0.26; A 0.22; Y 0.25; E 0.55; R 0.05; Q 0.35; D 0.39; C 0.09; V 0.17; H 0.01; I -0.3; W -0.3; S -0.1; F 0.04; G 0.29; P 0.32; N 0.27; T 0.42; M 0.34
S38: N 0.37; Y -0.07; E 0.31; H 0.06; P -0.2; K 0.36; A -0.36; V -0.31; Q -0.18; C -0.16; I -0.09; F -0.14; D 0.3; L -0.26; R -0.01; W -0.17; G 0.07; M -0.54; T -0.04
K54: L 0.21; E 0.02; C 0.29; R 0.2; H -0.42; I 0.01; Q -0.58; G 0.21; F -0.13; M -0.19; P -0.04; N 0.23; D -0.71; A 0.23
D48: V 0.07; Y 0.4; N 0.13; H 0.33; K -0.09; T -0.04; L 0.18; G -0.07; M 0.77; A 0.6; Q -0.36; W 0.22; F 0.37; E -0.17; C 0.13; I 0.19; R -0.06; S 0.3; P 0.18
G43: P 0.76; L -0.21; M -0.74; K 0.2; W 0.34; Q 0.32; V 0.07; E 0.18; N 0.18; T 0.05; F -0.52; S 0.34; A 0.25; R 0.51; I -0.07; D 0.22; H 0.33; Y -0.59; C -0.02
H53: F -0.19; K -0.51; E -0.28; N 0.08; T 0.14; I 0.12; D -0.16; W -0.6; S -0.22; C -0.27; P 0.19; M 0.08; L -0.05; A 0.38; R 0.29; G 0.41; Q 0.39; V 0.1; Y 0.27
